Data as given in patent US20240100180A1 (SOTIO BIOTECH A S, published 2024).

Key:
[1] = molecular target: human CLDN18.2 (Claudin 18.2) expressed on cells (human); assay: cell-based or functional assay
[2] = molecular target: T1, human CLDN18.2 (Claudin 18.2) expressed on cells (human); assay: % positive tumor cells divided by % positive healthy stomach cells, flow cytometry, average
T1 construct: also called huCLDN18.2; hCLDN18.2
Experimental: (§1) Two Balb/c mice were implanted subcutaneously with 1×10⁶ A549 cells expressing CLDN18.2 in 100 μl of 50% Matrigel and tumors growth was monitored over a few weeks until the tumor reached the desired size between 150-450 mm³. Healthy stomach tissue and tumor tissue was collected for FC analysis. The collected tissues were cut into small pieces and digested with the Miltenyi tumor dissociation kit (MACS Miltenyi Biotec, Germany). Tissue pieces were incubated with dissociation buffer (prepared according to the manufacturer instruction) in 6 well plates for 30 min in 37° C. under permanent gentle rocking motion. Samples were resuspended and strained through a 70 μm cell strainer (Corning, USA) followed by a wash with 20 ml FC buffer (PBS+2% FBS). Cell suspensions were centrifuged (5 min at 400 g for 4° C.) and the supernatants were discarded. If needed, cell suspensions were passed through a strainer and centrifuged repeatedly and pellets resuspended in 5 ml of red blood cell lysis buffer (Biolegend, USA), incubated on ice for 4 min. After incubation, 25 ml of PBS was added, and the suspensions were centrifuged again (5 min at 400 g for 4° C.). Pellets were resuspended in FC buffer (0.5-3 ml based on pellets). Equal number of cells were transferred into 96 well plates and further processed for FC analysis. […]

[3] = molecular target: T1, human CLDN18.2 (Claudin 18.2) expressed …; assay: % positive tumor cells divided by % positive healthy stomach cells, flow cytometry, mouse 2
Experimental: as §1

[4] = molecular target: T1, human CLDN18.2 (Claudin 18.2) expressed …; assay: % positive tumor cells divided by % positive healthy stomach cells, flow cytometry, mouse 1
Experimental: as §1

[5] = molecular target: T2, human CLDN18.1 (Claudin 18.1) expressed on cells (human, UniProt P56856 1-261); assay: flow cytometry, L11 cells overexpressing huCLDN18.1 (FIG. 4)
T2 construct: whole, on cells; Isoform 1 (lung isoform) of CLDN18; also called huCLDN18.1; hCLDN18.1
T2 sequence (P56856 whole entry, canonical isoform): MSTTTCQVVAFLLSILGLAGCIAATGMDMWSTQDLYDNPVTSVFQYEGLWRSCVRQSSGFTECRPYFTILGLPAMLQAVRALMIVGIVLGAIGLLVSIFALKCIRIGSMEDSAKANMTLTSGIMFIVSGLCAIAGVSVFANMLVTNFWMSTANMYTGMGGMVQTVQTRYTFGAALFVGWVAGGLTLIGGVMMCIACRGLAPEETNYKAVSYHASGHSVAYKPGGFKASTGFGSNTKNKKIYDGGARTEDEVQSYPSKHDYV
Experimental: The cells were stained on ice for 30 min using the antibodies at 2 μg/ml and, upon washing in PBS/2% FCS, stained with anti-human IgG (Fc gamma-specific) PE goat antibody (eBioscience) as secondary antibody for 30 min on ice.

Binder | EC50 of in-vitro cytotoxicity, A549-CLDN18.2 cells (head of c2) [1] | other results
hCL1a-LC-G2-PNU (antibody, human IgG1, kappa, PNU-159682 linked through ethylenediamine to the C-terminal Gly of the GGGGSLPQTGG tag) heavy: not shown light: DIQMTQSPSSLSASVGDRVTITCRASEDIYSNLAWYQQKPGKAPKLLIFSVKRLQDGVPSRFSGSGSGTDFTLTISSLQPEDFATYYCLQGSNFPLTFGQGTKVEIKRTVAAPSVFIFPPSDEQLKSGTASVVCLLNNFYPREAKVQWKVDNALQSGNSQESVTEQDSKDSTYSLSSTLTLSKADYEKHKVYACEVTHQGLSSPVTKSFNRGECGGGGSLPQTGG | 4.8 ng/mL | –
hCL1j-LC-G2-PNU (antibody, human IgG1, kappa, PNU-159682 linked through ethylenediamine to the C-terminal Gly of the GGGGSLPQTGG tag) heavy: not shown light: DIQMTQSPSSLSASVGDRVTITCRTSEDIYSNLAWYQQKPGKAPKLLIFAIKRLQDGVPSRFSGSGSGTDFTLTISSLQPEDFATYYCLQGSKFPLTFGQGTKVEIKRTVAAPSVFIFPPSDEQLKSGTASVVCLLNNFYPREAKVQWKVDNALQSGNSQESVTEQDSKDSTYSLSSTLTLSKADYEKHKVYACEVTHQGLSSPVTKSFNRGECGGGGSLPQTGG | 5.3 ng/mL | –
hCL1g-LC-G2-PNU (antibody, human IgG1, kappa, PNU-159682 linked through ethylenediamine to the C-terminal Gly of the GGGGSLPQTGG tag) heavy: not shown light: DIQMTQSPSSLSASVGDRVTITCRTSEDIYSNFAWYQQKPGKAPKLLIYSVNRLQDGVPSRFSGSGSGTDFTLTISSLQPEDFATYYCLQGSKFPLTFGQGTKVEIKRTVAAPSVFIFPPSDEQLKSGTASVVCLLNNFYPREAKVQWKVDNALQSGNSQESVTEQDSKDSTYSLSSTLTLSKADYEKHKVYACEVTHQGLSSPVTKSFNRGECGGGGSLPQTGG | 70.7 ng/mL | –
hCL1c-LC-G2-PNU (antibody, human IgG1, kappa, PNU-159682 linked through ethylenediamine to the C-terminal Gly of the GGGGSLPQTGG tag) heavy: not shown light: DIQMTQSPSSLSASVGDRVTITCRTSEDIYSNLAWYQQKPGKAPKLLIFAIKRLQDGVPSRFSGSGSGTDFTLTISSLQPEDFATYYCLQGSKFPLTFGQGTKVEIKRTVAAPSVFIFPPSDEQLKSGTASVVCLLNNFYPREAKVQWKVDNALQSGNSQESVTEQDSKDSTYSLSSTLTLSKADYEKHKVYACEVTHQGLSSPVTKSFNRGECGGGGSLPQTGG | 30 ng/mL | –
hCL1b-LC-G2-PNU (antibody, human IgG1, kappa, PNU-159682 linked through ethylenediamine to the C-terminal Gly of the GGGGSLPQTGG tag) heavy: not shown light: DIQMTQSPSSLSASVGDRVTITCRASEDIYSNLAWYQQKPGKAPKLLIFSVKRLQDGVPSRFSGSGSGTDFTLTISSLQPEDFATYYCLQGSNFPLTFGQGTKVEIKRTVAAPSVFIFPPSDEQLKSGTASVVCLLNNFYPREAKVQWKVDNALQSGNSQESVTEQDSKDSTYSLSSTLTLSKADYEKHKVYACEVTHQGLSSPVTKSFNRGECGGGGSLPQTGG | 6.4 ng/mL | –
hCL1h-LC-G2-PNU (antibody, human IgG1, kappa, PNU-159682 linked through ethylenediamine to the C-terminal Gly of the GGGGSLPQTGG tag) heavy: not shown light: DIQMTQSPSSLSASVGDRVTITCRASEDIYSNLAWYQQKPGKAPKLLIYSVKRLQDGVPSRFSGSGSGTDFTLTISSLQPEDFATYYCLQGSNFPLTFGQGTKVEIKRTVAAPSVFIFPPSDEQLKSGTASVVCLLNNFYPREAKVQWKVDNALQSGNSQESVTEQDSKDSTYSLSSTLTLSKADYEKHKVYACEVTHQGLSSPVTKSFNRGECGGGGSLPQTGG | 3.3 ng/mL | –
hCL1i-LC-G2-PNU (antibody, human IgG1, kappa, PNU-159682 linked through ethylenediamine to the C-terminal Gly of the GGGGSLPQTGG tag) heavy: not shown light: DIQMTQSPSSLSASVGDRVTITCRASEDIYSNLAWYQQKPGKAPKLLIFSVKRLQDGVPSRFSGSGSGTDFTLTISSLQPEDFATYYCLQGSNFPLTFGQGTKVEIKRTVAAPSVFIFPPSDEQLKSGTASVVCLLNNFYPREAKVQWKVDNALQSGNSQESVTEQDSKDSTYSLSSTLTLSKADYEKHKVYACEVTHQGLSSPVTKSFNRGECGGGGSLPQTGG | 3.8 ng/mL | –
hCL1f-LC-G2-PNU (antibody, human IgG1, kappa, PNU-159682 linked through ethylenediamine to the C-terminal Gly of the GGGGSLPQTGG tag) heavy: not shown light: DIQMTQSPSSLSASVGDRVTITCRASEDIYSNLAWYQQKPGKAPKLLIYSVKRLQDGVPSRFSGSGSGTDFTLTISSLQPEDFATYYCLQGSNFPLTFGQGTKVEIKRTVAAPSVFIFPPSDEQLKSGTASVVCLLNNFYPREAKVQWKVDNALQSGNSQESVTEQDSKDSTYSLSSTLTLSKADYEKHKVYACEVTHQGLSSPVTKSFNRGECGGGGSLPQTGG | 14 ng/mL | –
hCL1e-LC-G2-PNU (antibody, human IgG1, kappa, PNU-159682 linked through ethylenediamine to the C-terminal Gly of the GGGGSLPQTGG tag) heavy: not shown light: DIQMTQSPSSLSASVGDRVTITCRASEDIYSNLAWYQQKPGKAPKLLIFSVKRLQDGVPSRFSGSGSGTDFTLTISSLQPEDFATYYCLQGSNFPLTFGQGTKVEIKRTVAAPSVFIFPPSDEQLKSGTASVVCLLNNFYPREAKVQWKVDNALQSGNSQESVTEQDSKDSTYSLSSTLTLSKADYEKHKVYACEVTHQGLSSPVTKSFNRGECGGGGSLPQTGG | 4.3 ng/mL | –
hCL1d-LC-G2-PNU (antibody, human IgG1, kappa, PNU-159682 linked through ethylenediamine to the C-terminal Gly of the GGGGSLPQTGG tag) heavy: not shown light: DIQMTQSPSSLSASVGDRVTITCRTSEDIYSNFAWYQQKPGKAPKLLIYSVNRLQDGVPSRFSGSGSGTDFTLTISSLQPEDFATYYCLQGSKFPLTFGQGTKVEIKRTVAAPSVFIFPPSDEQLKSGTASVVCLLNNFYPREAKVQWKVDNALQSGNSQESVTEQDSKDSTYSLSSTLTLSKADYEKHKVYACEVTHQGLSSPVTKSFNRGECGGGGSLPQTGG | 11.6 ng/mL | –
cCl1-1 (antibody, V domains shown, Chimeric antibody from rat hybridoma, detected with anti-human IgG) VH: QIQLVQSGPELKKPGESVKISCKASGYTFTDYAMHWVKQAPGKGLKWMGWINTYTGKPTYADDFKGRFVFSLEASASTANLQISNLKNEDTATYFCARAVFYGYTMDAWGQGTSVTVSS VL: DIQMTQSPASLSASLGETISIACRASEDIYSNLAWYQQKSGKSPQLLIFSVKRLQDGVPSRFSGSGSGTQYSLKISGMQPEDEGDYFCLQGSNFPLTFGSGTKLEIK | – | Ratio tumor/stomach [2]: 74.3; Ratio tumor/stomach [3]: 50; Ratio tumor/stomach [4]: 92.5; binding result [5]: no binding (tested: 2 µg/ml)
cCl1-2 (antibody, V domains shown, Chimeric antibody from rat hybridoma, detected with anti-human IgG) VH: QIQLVQSGPELKKPGESVKISCKTSGYTFTDYAMHWVKQGPGKGMKWMGWINAYTGKPTYADDFKGRFVLSLEASASTANLQISNLKNEDTATYFCARAVYYGYTMDAWGQGTSVIVSS VL: DIQMTQSPASLSASLGETISIECRTSEDIYSNFAWFQQKSGKSPQLLIYSVNRLQDGVPSRFSGSGSGTQYSLKISGMQPEDEGDYFCLQGSKFPLTFGSGTKLEIK | – | binding result [5]: no binding (tested: 2 µg/ml)
cCl1-3 (antibody, V domains shown, Chimeric antibody from rat hybridoma, detected with anti-human IgG) VH: QIQLVQSGPELKKPGESVKISCKASGYTFTDYAMYWVKQVPGKGLRWMGWINTYTGKPTYADDFKGRFVFSLEASASTANLQISNLKNEDTATYFCARAVFYGYTMDAWGQGTSVTVSS VL: DIQMTQSPASLSASLGETISIACRTSEDIYSNLAWYQQKSGKSPQLLIFAIKRLQDGVPSRFSGSGSGTQYSLKISGMQPEDEGDYFCLQGSKFPLTFGSGTKLEIK | – | binding result [5]: no binding (tested: 2 µg/ml)
